No end group written: not given here. *: point of attachment. Farnesyl = CC(C)=CCC/C(C)=C/CC/C(C)=C/C*

The target in experiment [1] is FITC-labeled C-terminal peptide of HSP90a. Nature of the experiment: fluorescence polarisation.
Experiment [2] concerns the target AMCA-labeled C-terminal peptide of mouse PDE6A, S-farnesylated and carboxymethylated (mouse). The experiment can be described thus: FRET or BRET.
For experiment [3], the target named is PDE6 γ-subunit with a single Cys at position 35, labeled with 3-(bromo acetyl)-7-diethyl aminocoumarine (UniProt P04972). The experiment can be described thus: other fluorescence titration.
The target of experiment [4] is T1, human aryl hydrocarbon receptor-interacting protein-like 1 (hAIPL1), full length, His6-tagged (human, UniProt Q9NZN9 1-384).
T1 sequence (looked up): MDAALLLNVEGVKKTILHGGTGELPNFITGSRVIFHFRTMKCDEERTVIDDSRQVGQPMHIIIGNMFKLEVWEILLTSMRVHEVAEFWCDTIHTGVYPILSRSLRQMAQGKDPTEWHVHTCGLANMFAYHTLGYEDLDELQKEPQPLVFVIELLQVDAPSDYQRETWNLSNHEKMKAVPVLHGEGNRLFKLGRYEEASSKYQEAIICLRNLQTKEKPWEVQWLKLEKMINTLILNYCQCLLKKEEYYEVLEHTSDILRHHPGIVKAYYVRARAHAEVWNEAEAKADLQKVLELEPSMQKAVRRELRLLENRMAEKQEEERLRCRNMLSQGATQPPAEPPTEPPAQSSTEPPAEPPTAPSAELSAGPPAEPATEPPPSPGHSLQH
Nature of the experiment: FRET or BRET. Background: BRET reads energy transfer from a luciferase to a nearby fluorophore.

The target of experiment [5] is T2, hAIPL1 R302L mutant, His6-tagged (human, UniProt Q9NZN9 1-384, R302L).
T2 sequence (looked up): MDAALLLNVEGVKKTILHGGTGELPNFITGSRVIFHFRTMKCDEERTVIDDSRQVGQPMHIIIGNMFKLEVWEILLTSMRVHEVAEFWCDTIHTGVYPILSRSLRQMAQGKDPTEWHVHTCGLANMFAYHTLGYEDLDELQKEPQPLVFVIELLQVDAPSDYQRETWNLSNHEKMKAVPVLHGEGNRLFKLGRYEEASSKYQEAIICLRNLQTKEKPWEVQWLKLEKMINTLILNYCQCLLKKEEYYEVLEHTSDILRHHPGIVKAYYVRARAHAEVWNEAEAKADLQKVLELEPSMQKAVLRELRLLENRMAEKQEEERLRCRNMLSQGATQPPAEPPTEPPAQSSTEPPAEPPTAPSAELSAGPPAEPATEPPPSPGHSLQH
The experiment can be described thus: FRET or BRET.

Experiment [6] concerns the target T3, hAIPL1 P376S mutant, His6-tagged (human, UniProt Q9NZN9 1-384, P376S).
T3 sequence (looked up): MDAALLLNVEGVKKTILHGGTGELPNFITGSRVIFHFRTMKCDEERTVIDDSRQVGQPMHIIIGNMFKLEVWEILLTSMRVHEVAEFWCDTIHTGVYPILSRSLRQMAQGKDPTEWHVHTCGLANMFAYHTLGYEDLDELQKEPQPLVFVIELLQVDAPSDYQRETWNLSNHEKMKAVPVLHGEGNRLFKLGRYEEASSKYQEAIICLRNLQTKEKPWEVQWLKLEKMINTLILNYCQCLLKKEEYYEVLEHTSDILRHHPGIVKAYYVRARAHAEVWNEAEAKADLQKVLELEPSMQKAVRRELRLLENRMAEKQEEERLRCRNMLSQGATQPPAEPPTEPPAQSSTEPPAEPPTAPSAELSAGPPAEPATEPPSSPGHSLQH
The experiment can be described thus: FRET or BRET.

Experiment [7] deals with T4, hAIPL1 1–316 lacking the proline-rich domain, His6-tagged (human, UniProt Q9NZN9 1-316).
T4 sequence (looked up): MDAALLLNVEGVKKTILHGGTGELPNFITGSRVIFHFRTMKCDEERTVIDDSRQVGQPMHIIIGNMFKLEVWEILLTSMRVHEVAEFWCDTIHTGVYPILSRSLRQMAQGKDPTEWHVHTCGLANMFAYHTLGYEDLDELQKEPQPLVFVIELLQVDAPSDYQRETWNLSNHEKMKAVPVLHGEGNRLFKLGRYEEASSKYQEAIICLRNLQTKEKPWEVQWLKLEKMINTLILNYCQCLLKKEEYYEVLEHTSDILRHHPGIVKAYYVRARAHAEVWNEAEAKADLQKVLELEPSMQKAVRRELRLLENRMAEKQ
Nature of the experiment: FRET or BRET.

The target in experiment [8] is T1, human aryl hydrocarbon …. Nature of the experiment: other fluorescence titration.

As a reminder, the Kd is the free concentration of one partner at which half of the binding sites on the other are occupied at equilibrium, for simple one-to-one binding. Regarding “hAIPL1 P351∆12 mutant, His6-tagged (from UniProt Q9NZN9 1-384) (natural protein)”, the values for the Kd in experiment [1], in experiment [2] and in experiment [3] were 32.8 µM, 140 nM and 1380 nM, respectively.

As to GAPASKSC(Farnesyl) (also: Cys carboxymethylated, AMCA-X conjugated) [AMCA-labeled C-terminal peptide of mouse PDE6A, S-farnesylated and carboxymethylated], the Kd in experiment [4] was found to be 110 nM; in experiment [5] it was 160 nM; in experiment [6] it was 200 nM; in experiment [7] it was 240 nM.

B1: PDE6 γ-subunit with a single Cys at position 68, labeled with 3-(bromo acetyl)-7-diethyl aminocoumarine (natural protein, UniProt P04972 1-87, looked up)
chain: MNLEPPKAEIRSATRVMGGPVTPRKGPPKFKQRQTRQFKSKPPKKGVQGFGDDIPGMEGLGTDITVICPWEAFNHLELHELAQYGII
modifications: 3-(bromo acetyl)-7-diethyl aminocoumarine (BC) on Cys68
Molecule B1 yielded a Kd in experiment [8] of 2500 nM.

B2: human aryl hydrocarbon receptor-interacting protein-like 1 (hAIPL1), full length, His6-tagged (natural protein)
chain: MDAALLLNVEGVKKTILHGGTGELPNFITGSRVIFHFRTMKCDEERTVIDDSRQVGQPMHIIIGNMFKLEVWEILLTSMRVHEVAEFWCDTIHTGVYPILSRSLRQMAQGKDPTEWHVHTCGLANMFAYHTLGYEDLDELQKEPQPLVFVIELLQVDAPSDYQRETWNLSNHEKMKAVPVLHGEGNRLFKLGRYEEASSKYQEAIICLRNLQTKEKPWEVQWLKLEKMINTLILNYCQCLLKKEEYYEVLEHTSDILRHHPGIVKAYYVRARAHAEVWNEAEAKADLQKVLELEPSMQKAVRRELRLLENRMAEKQEEERLRCRNMLSQGATQPPAEPPTEPPAQSSTEPPAEPPTAPSAELSAGPPAEPATEPPPSPGHSLQH
Regarding B2, the Kd amounted to 20.8 µM in experiment [1] and 990 nM in experiment [3].

B3: hAIPL1 P376S mutant, His6-tagged (natural protein)
chain: MDAALLLNVEGVKKTILHGGTGELPNFITGSRVIFHFRTMKCDEERTVIDDSRQVGQPMHIIIGNMFKLEVWEILLTSMRVHEVAEFWCDTIHTGVYPILSRSLRQMAQGKDPTEWHVHTCGLANMFAYHTLGYEDLDELQKEPQPLVFVIELLQVDAPSDYQRETWNLSNHEKMKAVPVLHGEGNRLFKLGRYEEASSKYQEAIICLRNLQTKEKPWEVQWLKLEKMINTLILNYCQCLLKKEEYYEVLEHTSDILRHHPGIVKAYYVRARAHAEVWNEAEAKADLQKVLELEPSMQKAVRRELRLLENRMAEKQEEERLRCRNMLSQGATQPPAEPPTEPPAQSSTEPPAEPPTAPSAELSAGPPAEPATEPPSSPGHSLQH
In the case of B3, the figures for the equilibrium dissociation constant (Kd) in experiment [1] and in experiment [3] were 23 µM and 950 nM, respectively.

B4: hAIPL1 R302L mutant, His6-tagged (natural protein)
chain: MDAALLLNVEGVKKTILHGGTGELPNFITGSRVIFHFRTMKCDEERTVIDDSRQVGQPMHIIIGNMFKLEVWEILLTSMRVHEVAEFWCDTIHTGVYPILSRSLRQMAQGKDPTEWHVHTCGLANMFAYHTLGYEDLDELQKEPQPLVFVIELLQVDAPSDYQRETWNLSNHEKMKAVPVLHGEGNRLFKLGRYEEASSKYQEAIICLRNLQTKEKPWEVQWLKLEKMINTLILNYCQCLLKKEEYYEVLEHTSDILRHHPGIVKAYYVRARAHAEVWNEAEAKADLQKVLELEPSMQKAVLRELRLLENRMAEKQEEERLRCRNMLSQGATQPPAEPPTEPPAQSSTEPPAEPPTAPSAELSAGPPAEPATEPPPSPGHSLQH
Consider B4, for which the Kd in experiment [1] was 27.2 µM; in experiment [3], 810 nM.

B5: hAIPL1 1–316 lacking the proline-rich domain, His6-tagged (domain or fragment)
chain: MDAALLLNVEGVKKTILHGGTGELPNFITGSRVIFHFRTMKCDEERTVIDDSRQVGQPMHIIIGNMFKLEVWEILLTSMRVHEVAEFWCDTIHTGVYPILSRSLRQMAQGKDPTEWHVHTCGLANMFAYHTLGYEDLDELQKEPQPLVFVIELLQVDAPSDYQRETWNLSNHEKMKAVPVLHGEGNRLFKLGRYEEASSKYQEAIICLRNLQTKEKPWEVQWLKLEKMINTLILNYCQCLLKKEEYYEVLEHTSDILRHHPGIVKAYYVRARAHAEVWNEAEAKADLQKVLELEPSMQKAVRRELRLLENRMAEKQ
On to B5, for which the Kd in experiment [1] worked out at 20.8 µM; in experiment [3], 730 nM.

Source of the values: publication PMC6309207 (Journal of neurochemistry, 2015).
